From publication PMC3341331 (2012) come the findings set out here.

The target in the experiment is T1, recombinant E protein domain III of DENV-2, flag and hexahistidine tagged (dengue virus type 2).
T1 chain: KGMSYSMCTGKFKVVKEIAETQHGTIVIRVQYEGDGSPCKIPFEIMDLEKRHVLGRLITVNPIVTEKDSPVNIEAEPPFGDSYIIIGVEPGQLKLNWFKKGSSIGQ
Kind of experiment: SPR. For orientation: Surface plasmon resonance follows binding to a sensor surface in real time, without labels.

B1: humanized DB32-6 monoclonal antibody (antibody, V domains shown)
VH: EVQLQQSGAELVKPGASVNLSCTASGFNIKDTYIHWVKQRPEQGLEWIGRIDPENGNAKYDPNFQAKATIAADTSSNTAYLQLSSLTSEDTAVYYCVRTGSFWYFDVWGQGTLVTVSS
VL: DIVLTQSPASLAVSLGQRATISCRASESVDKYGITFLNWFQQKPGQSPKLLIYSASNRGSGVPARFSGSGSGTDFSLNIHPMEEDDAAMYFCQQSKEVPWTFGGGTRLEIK
For orientation: koff means a measure of how fast the partners let go of each other. On to B1, for which the koff was found to be 1.7e-06 s⁻¹.

B2: murine DB32-6 monoclonal antibody (antibody)
chain 1: QVQLQQSGAELVKPGASVKLSCTASGFNIKDTYIHWVKQRPGQGLEWIGRIDPENGNAKYDPNFQAKATITADTSSNTAYLHLSSLTSEDTAVYYSVRTGSFWYFDVWGAGTTVTVSS
chain 2: not shown
Take B2: the koff stood at 1.7e-06 s⁻¹.
